Test results reported in the supplement of paper PMC6757056.
± gives the standard deviation of the averaged measurements.

B1: library; a variant is named by its letters at N, in order (parent)
chain: GCUGUCACCGGUGCUUGGUACGUUAUAUUCAGCCGGUCUGAUGAGUCUNNNNNNAGACGAAACAGC

How the values were obtained:
(6R,S)-folinic acid [1] = variants of: B1; assay: FACS-Seq fitted mean relative fluorescence mCherry/BFP without ligand (log10 relative fluorescence); HEK293T overexpressing SLC46A1; higher = higher reporter protein expression; details: without (6R,S)-folinic acid; ligand present: no
Description: (§1)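 Hammerhead (sTRSV) ribozyme switch libraries with a ligand aptamer grafted on stem I and a randomized N4-6 loop II, cloned into the 3' UTR of mCherry and transiently transfected into HEK293T cells; RNA-Seq 72 h post transfection with ligand added 1 h before transfection; RNA read count / plasmid DNA read count normalized to the non-cleaving sTRSVctl (x100), log10; sequences with >100 DNA reads. FACS-Seq: lentiviral library sorted into 6 bins after 48 h ligand, log-normal fit mean of mCherry/BFP scaled to controls. Printed sequences are partial switch sequences.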

(6R,S)-folinic acid [2] = variants of: B1; assay: normalized RNA/DNA level without ligand (relative to sTRSVctl = 100) (log10 (% of sTRSVctl)); HEK293T overexpressing SLC46A1; higher = less ribozyme self-cleavage, higher mRNA level; details: without (6R,S)-folinic acid; ligand present: no
Description: as §1

(6R,S)-folinic acid [3] = variants of: B1; assay: FACS-Seq fitted mean relative fluorescence mCherry/BFP with ligand (log10 relative fluorescence); HEK293T overexpressing SLC46A1; ligand concentration (+) FACS-Seq: 6 mM; higher = higher reporter protein expression; details: with (6R,S)-folinic acid; ligand present: yes
Description: as §1

(6R,S)-folinic acid [4] = variants of: B1; assay: normalized RNA/DNA level with ligand (relative to sTRSVctl = 100) (log10 (% of sTRSVctl)); HEK293T overexpressing SLC46A1; ligand concentration (+) RNA-Seq: 6 mM; higher = less ribozyme self-cleavage, higher mRNA level; details: with (6R,S)-folinic acid; ligand present: yes
Description: as §1

Row | Variant | FACS-Seq fitted mean (log10) ((6R,S)-folinic acid [1]) | normalized RNA/DNA level without ligand (log10) ((6R,S)-folinic acid [2]) | FACS-Seq fitted mean (log10) ((6R,S)-folinic acid [3]) | normalized RNA/DNA level with ligand (log10) ((6R,S)-folinic acid [4])
1 | AACAUA | 0.204 ± 0.049 | 1.975 ± 0.0044 | 0.324 ± 0.15 | 1.99 ± 0.033
2 | AAAGCG | 0.0389 ± 0.01 | 1.743 ± 0.0089 | 0.352 ± 0.079 | 1.989 ± 0.013
3 | AGGCAU | 0.532 ± 0.008 | 1.982 ± 0.0087 | 0.603 ± 0.48 | 2.02 ± 0.026
4 | CAUCGC | 0.37 ± 0.072 | 2.019 ± 0.0067 | 0.228 ± 0.031 | 1.99 ± 0.041
5 | CCUGAU | -0.195 ± 0.23 | 2.02 ± 0.024 | -0.196 ± 0.058 | 2.05 ± 0.028
6 | GGAAUU | 0.362 ± 0.1 | 2.046 ± 0.0046 | 0.236 ± 0.27 | 2.061 ± 0.016
7 | AUGAUG | 0.408 ± 0.071 | 1.87 ± 0.023 | 0.544 ± 0.23 | 1.98 ± 0.023
8 | UCGAGU | 0.379 ± 0.014 | 1.966 ± 0.014 | 0.483 ± 0.24 | 2.0199 ± 0.0014
9 | CGGUGU | 0.22 ± 0.22 | 1.993 ± 0.015 | 0.278 ± 0.12 | 1.98 ± 0.046
10 | UACCAC | 0.907 ± 0.028 | 1.971 ± 0.0041 | 0.651 ± 0.047 | 1.994 ± 0.012
11 | CGGCUC | 0.213 ± 0.046 | 2.048 ± 0.0069 | 0.269 ± 0.16 | 2.037 ± 0.014
12 | GAGAAA | 0.129 ± 0.016 | 1.958 ± 0.011 | 0.0474 ± 0.047 | 1.996 ± 0.01
13 | AGGAGA | 0.26 ± 0.062 | 1.931 ± 0.007 | 0.172 ± 0.078 | 2.018 ± 0.017
14 | AGGAGG | 0.585 ± 0.15 | 1.922 ± 0.0095 | 0.614 ± 0.2 | 2.05 ± 0.03
15 | CUAAUA | 0.179 ± 0.11 | 1.974 ± 0.0043 | 0.335 ± 0.36 | 1.982 ± 0.007
16 | AAAGGC | 0.486 ± 0.051 | 2.041 ± 0.0056 | 0.631 ± 0.18 | 2.04 ± 0.034
17 | ACAGGG | 0.0799 ± 0.097 | 1.7 ± 0.032 | 0.604 ± 0.24 | 1.97 ± 0.029
18 | UAUAGC | 0.469 ± 0.011 | 1.943 ± 0.018 | 0.395 ± 0.19 | 1.98 ± 0.036

Row | Variant | FACS-Seq fitted mean (log10) ((6R,S)-folinic acid [1]) | normalized RNA/DNA level without ligand (log10) ((6R,S)-folinic acid [2]) | FACS-Seq fitted mean (log10) ((6R,S)-folinic acid [3]) | normalized RNA/DNA level with ligand (log10) ((6R,S)-folinic acid [4])
19 | AUGUGG | 0.0386 ± 0.035 | 1.844 ± 0.0091 | 0.311 ± 0.041 | 2.01 ± 0.046
20 | AUACAU | 0.534 ± 0.18 | 1.96 ± 0.022 | 0.452 ± 0.056 | 2.017 ± 0.02
21 | AUACAA | 0.428 ± 0.07 | 1.974 ± 0.0047 | 0.215 ± 0.014 | 1.99 ± 0.035
22 | AAUCGC | 0.375 ± 0.075 | 2.027 ± 0.017 | 0.448 ± 0.18 | 2.01 ± 0.029
23 | ACGAAG | 0.365 ± 0.028 | 1.834 ± 0.0094 | 0.953 ± 0.2 | 1.993 ± 0.017
24 | UCCUUG | 0.0329 ± 0.028 | 1.85 ± 0.021 | 0.189 ± 0.026 | 1.99 ± 0.033
25 | UUCAAU | 0.465 ± 0.017 | 2.004 ± 0.013 | 0.748 ± 0.3 | 1.98 ± 0.052
26 | AAGAUG | 0.3831 ± 0.00047 | 1.8871 ± 0.00048 | 0.235 ± 0.29 | 1.997 ± 0.018
27 | UACUGG | 0.0573 ± 0.058 | 1.65 ± 0.049 | 0.433 ± 0.099 | 1.97 ± 0.039
28 | CGGUAA | 0.149 ± 0.092 | 1.954 ± 0.014 | 0.184 ± 0.083 | 1.993 ± 0.013
29 | UACCGC | 0.235 ± 0.05 | 1.988 ± 0.017 | 0.503 ± 0.22 | 1.99 ± 0.066
30 | UACCGG | 0.355 ± 0.059 | 1.982 ± 0.019 | 0.676 ± 0.1 | 2.004 ± 0.0069
31 | GACAGG | 0.464 ± 0.089 | 1.959 ± 0.01 | 0.498 ± 0.27 | 2.02 ± 0.042
32 | AAAUAC | 0.31 ± 0.028 | 1.988 ± 0.0076 | 0.0315 ± 0.22 | 2 ± 0.03
33 | ACGAUC | 0.555 ± 0.16 | 2.062 ± 0.0089 | 0.363 ± 0.0082 | 2.038 ± 0.0079
34 | UAACAG | 0.325 ± 0.2 | 1.829 ± 0.015 | 0.463 ± 0.16 | 1.952 ± 0.017
35 | UUUUUG | 0.145 ± 0.073 | 1.855 ± 0.016 | 0.176 ± 0.0085 | 2 ± 0.022
36 | GUACUU | 0.484 ± 0.059 | 2.034 ± 0.015 | 0.386 ± 0.2 | 2.04 ± 0.06
